The values that follow come from publication PMC3984902 (Oncogene, 2013).

The experiment has as its target HSP90β (purified recombinant) (UniProt P08238 1-724). As to the kind of experiment: ITC. For orientation: Isothermal titration calorimetry measures the heat released or taken up as one component is titrated into another.

HSP90β (purified recombinant), sequence (P08238 whole entry): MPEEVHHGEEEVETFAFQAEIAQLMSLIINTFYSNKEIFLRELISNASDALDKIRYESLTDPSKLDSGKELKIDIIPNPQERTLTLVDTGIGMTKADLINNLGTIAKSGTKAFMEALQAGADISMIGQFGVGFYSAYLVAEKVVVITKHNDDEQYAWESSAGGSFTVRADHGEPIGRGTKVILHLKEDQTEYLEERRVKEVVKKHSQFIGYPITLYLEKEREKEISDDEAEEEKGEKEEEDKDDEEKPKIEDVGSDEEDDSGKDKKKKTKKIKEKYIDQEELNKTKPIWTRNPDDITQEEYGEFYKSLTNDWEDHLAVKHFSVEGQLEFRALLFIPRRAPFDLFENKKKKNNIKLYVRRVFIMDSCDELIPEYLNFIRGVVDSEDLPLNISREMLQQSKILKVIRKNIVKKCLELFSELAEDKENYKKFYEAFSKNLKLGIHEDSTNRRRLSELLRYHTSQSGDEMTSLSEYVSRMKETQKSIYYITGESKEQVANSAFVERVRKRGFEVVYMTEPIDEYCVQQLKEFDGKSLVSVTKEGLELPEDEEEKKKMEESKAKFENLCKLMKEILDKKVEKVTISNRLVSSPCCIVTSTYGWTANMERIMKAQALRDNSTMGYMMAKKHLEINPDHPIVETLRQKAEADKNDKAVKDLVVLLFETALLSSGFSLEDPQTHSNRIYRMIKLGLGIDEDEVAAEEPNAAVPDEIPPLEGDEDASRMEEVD

B1: FLAG-tagged wildtype CDC37 (purified recombinant) (natural protein)
chain: MVDYSVWDHIEVSDDEDETHPNIDTASLFRWRHQARVERMEQFQKEKEELDRGCRECKRKVAECQRKLKELEVAEGGKAELERLQAEAQQLRKEERSWEQKLEEMRKKEKSMPWNVDTLSKDGFSKSMVNTKPEKTEEDSEEVREQKHKTFVEKYEKQIKHFGMLRRWDDSQKYLSDNVHLVCEETANYLVIWCIDLEVEEKCALMEQVAHQTIVMQFILELAKSLKVDPRACFRQFFTKIKTADRQYMEGFNDELEAFKERVRGRAKLRIEKAMKEYEEEERKKRLGPGGLDPVEVYESLPEELQKCFDVKDVQMLQDAISKMDPTDAKYHMQRCIDSGLWVPNSKASEAKEGEEAGPGDPLLEAVPKTGDEKDVSV
With B1, the Kd came to 2.26 µM.

B2: FLAG-tagged CDC37 M164A (purified recombinant) (natural protein)
chain: MVDYSVWDHIEVSDDEDETHPNIDTASLFRWRHQARVERMEQFQKEKEELDRGCRECKRKVAECQRKLKELEVAEGGKAELERLQAEAQQLRKEERSWEQKLEEMRKKEKSMPWNVDTLSKDGFSKSMVNTKPEKTEEDSEEVREQKHKTFVEKYEKQIKHFGALRRWDDSQKYLSDNVHLVCEETANYLVIWCIDLEVEEKCALMEQVAHQTIVMQFILELAKSLKVDPRACFRQFFTKIKTADRQYMEGFNDELEAFKERVRGRAKLRIEKAMKEYEEEERKKRLGPGGLDPVEVYESLPEELQKCFDVKDVQMLQDAISKMDPTDAKYHMQRCIDSGLWVPNSKASEAKEGEEAGPGDPLLEAVPKTGDEKDVSV
Turning to B2, the Kd is 7.19 µM.

A word on the Kd: it is the concentration at which binding is half-saturated.
